Data taken from US20060287501A1 (Pieris, published 2006).
Numbering of substitutions follows the chain as printed. Names may count otherwise. Values belong to the binder of their own block, whether it stands above or below them.

Legend:
[1] = target: T1, recombinant Nogo-A fragment NI-Fr4 (rat, UniProt Q9JK11 233-941); assay: SPR (Biacore X); NI-Fr4 on Ni/NTA chip via His6, Fab (pASK107, Strep-tag II) at 0.25-6.8 µM, equilibrium fit
T1 construct: Truncated rat Nogo-A with N-terminal Strep-tag II and C-terminal His6
T1 sequence: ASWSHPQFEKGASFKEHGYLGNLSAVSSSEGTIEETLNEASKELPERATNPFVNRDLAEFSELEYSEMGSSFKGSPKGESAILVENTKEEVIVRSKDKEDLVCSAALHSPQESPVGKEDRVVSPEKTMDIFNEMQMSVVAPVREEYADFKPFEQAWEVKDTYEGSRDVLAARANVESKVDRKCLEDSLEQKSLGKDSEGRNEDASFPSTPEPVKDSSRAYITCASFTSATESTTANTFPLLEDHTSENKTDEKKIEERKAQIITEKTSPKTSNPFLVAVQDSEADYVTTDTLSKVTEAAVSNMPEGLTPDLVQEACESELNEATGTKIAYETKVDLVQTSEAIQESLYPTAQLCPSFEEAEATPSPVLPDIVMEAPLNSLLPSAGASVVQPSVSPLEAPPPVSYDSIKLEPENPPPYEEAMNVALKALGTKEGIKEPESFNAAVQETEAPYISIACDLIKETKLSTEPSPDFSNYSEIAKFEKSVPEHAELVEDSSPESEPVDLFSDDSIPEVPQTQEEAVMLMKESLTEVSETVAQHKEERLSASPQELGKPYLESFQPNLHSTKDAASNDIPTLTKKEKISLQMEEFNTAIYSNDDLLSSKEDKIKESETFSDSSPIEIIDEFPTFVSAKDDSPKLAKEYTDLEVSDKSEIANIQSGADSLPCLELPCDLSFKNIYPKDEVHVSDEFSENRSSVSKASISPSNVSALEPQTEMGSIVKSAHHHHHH
Method: (§1) The thermodynamic affinity for the recombinant Nogo-A fragment NI-Fr4 was determined both for the II.1.8 mutant and for the wild-type IN-1 Fab fragment using the method of real time surface plasmon resonance (SPR) on a Biacore-X® system equipped with an Ni/NTA-derivatized sensor chip® (Biacore AB, Uppsala, Sweden). PBS containing 0.005% (v/v) surfactant P20 was used as continuous flow buffer as well as for dilution of proteins. Analysis was performed at 25° C. using a flow rate of 35 μl/min.
(§2) Then the Fab fragment (produced by means of the vector pASK107 and purified via the Strep-tag II; see Example 1)) was injected at a defined concentration (between 0.25 and 6.8 μM) for 2 minutes, followed by buffer flow for 4 minutes. The chip surface was regenerated using 70 μl 0.35 M EDTA, pH 8.0 in flow buffer prior to the next measurement. Each time-dependent binding isotherm of the Fab fragment was corrected for the background signal that was detected in the flow channel without NI-Fr4 using BIAevaluation software (Version 3.0). Resonance unit values for the bound Fab fragment at equilibrium for each applied concentration were then deduced and fitted (Voss and Skerra, supra) by non-linear least squares regression using an equation of the type y=a*x/(b+x). […]

BSA = target: T2, BSA (bovine, UniProt P02769 25-607); assay: ELISA; BSA as antigen
T2 construct: Control antigen
T2 sequence (P02769 25-607 limits assumed): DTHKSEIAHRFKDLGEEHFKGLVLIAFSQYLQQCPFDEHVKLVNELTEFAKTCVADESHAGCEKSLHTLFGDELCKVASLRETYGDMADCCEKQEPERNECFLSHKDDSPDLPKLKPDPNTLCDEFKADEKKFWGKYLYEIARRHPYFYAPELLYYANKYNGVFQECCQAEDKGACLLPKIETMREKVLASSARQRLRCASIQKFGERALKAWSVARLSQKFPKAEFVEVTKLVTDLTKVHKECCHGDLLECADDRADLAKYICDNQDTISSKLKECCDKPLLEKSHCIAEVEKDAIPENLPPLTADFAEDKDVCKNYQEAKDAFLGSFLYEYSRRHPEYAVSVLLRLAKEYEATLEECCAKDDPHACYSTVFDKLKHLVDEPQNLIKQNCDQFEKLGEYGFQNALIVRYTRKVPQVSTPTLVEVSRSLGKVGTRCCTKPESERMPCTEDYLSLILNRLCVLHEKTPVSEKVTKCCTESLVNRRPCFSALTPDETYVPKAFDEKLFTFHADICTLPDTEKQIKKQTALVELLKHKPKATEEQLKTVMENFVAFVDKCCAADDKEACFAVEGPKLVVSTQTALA

[2] = target: T3, recombinant Nogo-A fragment NI-Fr2 (rat, UniProt Q9JK11 233-941, labelled with digoxigenin (molar ratio 5:1) in the colony screening assay); assay: ELISA, wells coated with NI-Fr2, bound Fab detected with anti-human Ckappa antibody-alkaline phosphatase, delta A405/delta t
T3 construct: Truncated rat Nogo-A with C-terminal Strep-tag, made in the E. coli periplasm; also called MI-Fr2; wild-type NI-Fr2
T3 sequence: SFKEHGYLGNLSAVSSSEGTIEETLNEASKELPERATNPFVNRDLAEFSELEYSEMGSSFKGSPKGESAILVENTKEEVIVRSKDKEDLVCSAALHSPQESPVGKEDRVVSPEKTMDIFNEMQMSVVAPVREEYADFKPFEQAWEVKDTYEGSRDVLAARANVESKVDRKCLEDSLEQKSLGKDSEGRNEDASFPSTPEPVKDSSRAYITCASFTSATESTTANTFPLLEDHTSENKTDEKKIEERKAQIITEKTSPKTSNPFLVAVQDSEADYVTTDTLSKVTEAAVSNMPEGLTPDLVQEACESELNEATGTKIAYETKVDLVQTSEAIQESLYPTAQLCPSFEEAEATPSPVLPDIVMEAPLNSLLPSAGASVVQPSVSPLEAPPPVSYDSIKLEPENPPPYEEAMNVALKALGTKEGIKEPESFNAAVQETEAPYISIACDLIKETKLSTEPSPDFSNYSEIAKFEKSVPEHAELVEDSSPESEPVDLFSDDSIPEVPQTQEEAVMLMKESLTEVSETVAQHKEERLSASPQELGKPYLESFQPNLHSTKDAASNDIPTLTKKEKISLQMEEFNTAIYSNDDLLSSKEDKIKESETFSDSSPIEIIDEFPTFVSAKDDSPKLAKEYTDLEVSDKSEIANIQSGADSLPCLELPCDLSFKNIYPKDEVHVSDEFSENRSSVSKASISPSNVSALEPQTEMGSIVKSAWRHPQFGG
Method: Antigen-binding activity of the mutant Fab fragments was subsequently tested by ELISA using the recombinant NI-Fr2 for coating of the microtitre plate wells (FIG. 2).
ELISA was carried out in a 96 well microtitre plate (Becton Dickinson, Heidelberg, Germany) at ambient temperature with incubation steps of 1 h unless otherwise stated. Three washing steps with PBS/T were used after each incubation, and residual liquid was removed thoroughly. The wells were coated for 4 h with 50 μl of a solution of MI-Fr2 at concentrations between 180 and 200 μg/ml in PBS buffer and then blocked with 200 μl 3% (w/v) BSA, 0.5% (v/v) Tween 20 in PBS. After washing, 50 μl of the purified recombinant Fab fragment was applied at a dilution series in PBS/T. The wells were then incubated with 50 μl anti-human Cκ antibody conjugated with alkaline phosphatase (Sigma), diluted 1:1000 in PBS/T. Signals were finally developed in the presence of p-nitrophenyl phosphate (Voss and Skerra, (1997) Protein Eng., 10, 975-982). Enzymatic activity was measured at 25° C. as the change in absorbance at 405 nm per min with a SpectraMAX 250 instrument (Molecular Devices, Sunnyvale, Calif.). The data were corrected for background values determined in wells that were merely coated with BSA and fitted by non-linear least squares regression as described by Voss and Skerra, supra

[3] = target: T4, mutant of NI-Fr2 devoid of Cys^574 and Cys^676 (rat, UniProt Q9JK11 233-940, labelled with digoxigenin in the colony screening assay); assay: filter-sandwich colony screening assay; Fab-ABD (pASK106) captured on HSA membrane, labelled NI-Fr2 mutant (no Cys574, Cys676) at 30 µg/ml
T4 sequence: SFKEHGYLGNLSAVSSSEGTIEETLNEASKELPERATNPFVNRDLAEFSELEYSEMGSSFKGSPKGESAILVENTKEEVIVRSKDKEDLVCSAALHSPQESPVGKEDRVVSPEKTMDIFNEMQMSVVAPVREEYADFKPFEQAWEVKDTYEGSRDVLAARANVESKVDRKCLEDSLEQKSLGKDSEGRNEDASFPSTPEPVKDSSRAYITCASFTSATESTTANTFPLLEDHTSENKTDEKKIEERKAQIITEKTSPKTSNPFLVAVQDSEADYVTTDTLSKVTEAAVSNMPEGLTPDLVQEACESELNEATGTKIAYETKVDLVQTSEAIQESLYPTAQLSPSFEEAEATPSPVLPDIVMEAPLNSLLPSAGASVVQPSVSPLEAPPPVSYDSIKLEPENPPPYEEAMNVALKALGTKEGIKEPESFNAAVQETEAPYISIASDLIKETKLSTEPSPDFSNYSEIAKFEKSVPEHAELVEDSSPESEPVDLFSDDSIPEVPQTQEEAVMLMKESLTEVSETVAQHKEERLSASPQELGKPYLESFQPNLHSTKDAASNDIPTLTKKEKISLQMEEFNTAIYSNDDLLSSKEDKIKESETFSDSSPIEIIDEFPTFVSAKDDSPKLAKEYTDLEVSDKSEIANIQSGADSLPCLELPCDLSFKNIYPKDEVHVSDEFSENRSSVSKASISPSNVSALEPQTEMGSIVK
Method: The first membrane, carrying tiny colonies of the transformed cells, was then placed onto the second (hydrophobic) membrane. The filter sandwich was incubated for 16 h at 22° C. During this period the mutated IN-1 Fab fragments became secreted—and partially released from the colonies by leakage from the bacterial periplasm—and finally immobilized on the lower membrane via complex formation between HSA and ABD.
The first membrane with the still viable colonies was transferred to a fresh LB/Amp agar plate and stored at 4° C. The second membrane was washed three times in PBS containing 0.1% (v/v) Tween 20 (PBS/T) and the immobilized Fab fragments, each in a spot 30 corresponding to the position of the original colony, were probed for antigen binding. To this end recombinant Nogo-A fragment NI-FR2 was labeled at a molar ratio of 5:1 with digoxigenin-3-O-methylcarbonyl-e-aminocaproic acid N-hydroxy-succinimide ester (Roche Diagnostics, Mannheim, Germany) and applied to the membrane for one hour at a concentration of 30 or 50 μg/ml in PBS/T. After washing three times with PBS/T the membrane was incubated for one hour with 0.75 u/ml anti-digoxigenin Fab fragment conjugated with alkaline phosphatase (Roche Diagnostics) in 10 ml PBS/T. The membrane was finally washed twice with PBS/T and twice with PBS and the signals were developed using standard chromogenic substrates as described (Schlehuber et al., supra). Colonies corresponding to signals with an intensity above average were identified, recovered from the first membrane, and propagated for further analysis of their recombinant gene product.
CDR-L3 forms a connecting loop between two neighboring beta-strands such that the positions L91 and L92 are in close spatial proximity with L96. […] This time the stringency of selection was raised by lowering the concentration of the recombinant antigen - a mutant of NI-Fr2 devoid of Cys⁵⁷⁴ and Cys⁶⁷⁶—from 50 μg/ml to 30 μg/ml.

[4] = target: T1, recombinant Nogo-A fragment NI-Fr4; assay: SPR (Biacore X); NI-Fr4 on Ni/NTA chip, equilibrium fit
Method: as §1, §2

[5] = target: T3, recombinant Nogo-A fragment NI-Fr2; assay: ELISA; NI-Fr2 coated, purified Fab (pASK88, His6), anti-human Ckappa-AP detection

binding result (BSA): no binding | binding result [2]: binds
B2: I.2.6 Fab fragment (IN-1 mutant) (Fab, V domains shown)
VH: EVKLHESGPGLVRPGTSVKISCKASGYTFTNYWLGWVKQRPGHGLEWIGDIYPGGGYTNYNEKFKGKATLTADTSSSTAYMQLSSLTSEDSAVYFCARFYYGSSYWYFDVWGQGTTVTVSS
VL: DIELTQSPAIMAASVGETVTITCGASENIYGALNWYQRKQGKSPQLLIYGATNLADGMSSRFSGSGSGRQYSLKISSLHPDDVATYYCQNVLRVPCTFGAGTKLEIK
notes: Chimeric Fab, human IgG1/kappa constant domains; also called mutant I.2.6; original I.2.6 Fab fragment

binding result [3]: binds
B4: II.1.3 Fab fragment (Fab, V domains shown)
VH: B2 VH
VL: B2 VL with V91M, L92K, C96V
notes: Chimeric Fab, human IgG1/kappa constant domains

fold improvement of KD over the wild-type IN-1 Fab fragment [4]: 8 fold | Kd [1]: 1.04 µM
B5: II.1.8 Fab fragment (Fab, V domains shown)
VH: B2 VH
VL: B2 VL with V91I, L92N, C96V
notes: also called II.1.8 mutant; antibody fragment II.1.8

binding result [3]: binds
B7: II.1.1 Fab fragment (Fab, V domains shown)
VH: B2 VH
VL: B2 VL with V91R, L92K, C96V
notes: as for B4

Second part, the binder before the results:

B1: recombinant wild-type IN-1 Fab fragment (Fab, V domains shown)
VH: B2 VH
VL: B2 VL with R93S, V94T, C96R
notes: Formats: pASK106 (ABD on light chain) in the colony screen, pASK88 (His6 on heavy chain) in ELISA, staining and neurite assay, pASK107 (Strep-tag II) in SPR; also called IN-1 wt; IN-1 (wild-type) Fab fragment
Kd [1]: 7.8 µM

B3: I.2.6(L96V) Fab fragment (Fab, V domains shown)
VH: B2 VH
VL: B2 VL with C96V
notes: Chimeric Fab, human IgG1/kappa constant domains; also called I.2.6(^L96Val) Fab fragment; replacement Cys^L96->Val
binding result [2]: binds

B6: I.1.4 Fab fragment (IN-1 mutant) (Fab, V domains shown)
VH: B2 VH
VL: B2 VL with R93P, C96W
notes: as for B4
binding result [5]: binds

B8: II.1.7 Fab fragment (Fab, V domains shown)
VH: B2 VH
VL: B2 VL with V91L, L92K, C96V
notes: as for B4
binding result [3]: binds
